Source: the DeepSol protein solubility set

assay: soluble on expression in E. coli; label from the status in PepcDB or PDB records

Row | Sequence | soluble on expression in E. coli
1 | MNPAALSAFTRSLLFNRCSTSSFCNSITRNAVAFFATAAATPKINVNVGTIGHIDHGKTTLTSAITRVQAKKGFAKHIKFDEIDKGKEEKKRGITINVAHIGYESPLRRYSHTDCPGHSDFIKNMICGTSQMDVAVLVIAATDGVMEQTKEHLILAKQVGVKNMAIFINKADLVEEDDLDLVEMEARELLSLHGFNGDATPVIRGSALSALEGQDISCIERLIDALDSLPEPDRNEKDTFVMPIASKTAITGRGTVIVGTLERGVLKKGDKVEIKGDGQTLQTTASDIQVFGKSVKEVRAGDHCGVLCRGVKGDTVKRGMWAGHPGAVTITNRVKVELYLLSEAENGRKIGIRTGFTDKMYCSTWDQVGRFDMSNELLMPGEHTSATVLLMKDMPLRKGMPFTLREGSSKTTIARGIISDLEDHVAVEKHNLKKSAEKM | not soluble
2 | MPTNCAAAGCATTYNKHINISFHRFPLDPKRRKEWVRLVRRKNFVPGKHTFLCSKHFEASCFDLTGQTRRLKMDAVPTIFDFCTHIKSMKLKSRNLLKKNNSCSPAGPSNLKSNISSQQVLLEHSYAFRNPMEAKKRIIKLEKEIASLRRKMKTCLQKERRATRRWIKATCLVKNLEANSVLPKGTSEHMLPTALSSLPLEDFKILEQDQQDKTLLSLNLKQTKSTFI | not soluble
3 | MKNNAIGSNWKDVRAELFSKEEILESDMRVAIMSELIEARNEKGISQKKLEEMSGVSQPVIARMETGKTSPQLDTVLKVLASLGKTLAVVPLEHEQV | not soluble
4 | GGSEDEDSPLDALDLVWAKCRGYPSYPALIIDPKMPREGMFHHGVPIPVPPLEVLKLGEQMTQEAREHLYLVLFFDNKRTWQWLPRTKLVPLGVNQDLDKEKMLEGRKSNIRKSVQIAYHRALQHRSKVQGE | soluble
5 | RVAGSAIDYWRAGILGKRRVRVENHIVLLGWNGSRTMHLIRMLQHEEEGKRPIVLCSRSDIENPLPGEIHFIKVTSYTDAQEMKNANITDASCIIVDNLSDDITLSAALYCASVNPDAHLLAYFKDDALGRLLSQHCPKAECIPAVGAEMLAKAAVDPGSSALHQELLASTRGMTQYSVIYPENQPITTIESIFGFIKKRHHATLIAFDIGNGIQLNPDLDAEVPPGTKLFYIADERIDDFAWKEMNKEQ | not soluble
6 | MAHHHHHHMCREPYLLLSMHRLLLAAYWPDSDRLHCSEREWPLTEHSGAVPFMVESANGRVLPWCPWRDNSVAELLAVVRGMMELAGMKLGIVVGDRLVPD | soluble
7 | MSSKPRHDWFQSETDVTLTILKRGVPLDDCSVSLSDNNTLTVKQCDEILFYGQLSGQVKKDDLTVKCTAAKVEVRLPKFARNERWASLLKDGQGVAASVQSVSPNPESAPTTTVKKNWDAIEKQAVKEEEDESLEGDAAVNKMFRKMYNDASDDVRRAMMKSYSESNGTVLSTNWSEIGQKKTECQPPACMEYKEYEK | not soluble
8 | MGSDKIHHHHHHMSLKELLKDRLSEEELKLVRRSFEIIGDVVIIEIPDEIMHHSRDIVEAILKRHKHVKTVLRKVGEVDGVYRVARYEPIYGEKTETVVREHGCRFLVDPTKAYYSVKLSGERERIARLVGEGERVLVMFAGVGPYPIVIAKLARPREVVGVELNPHAVEYFRQNVRLNKVEGVVKVIEGDVEEVVPQLSGQFDRVVMPAPYSAENFIHLLRGKVRRGGFVHYYTFDSQNEEKILPEKVRRKFEDEGLEVEVVKMRRCGNFAPYVNRYVLDLRVL | not soluble
9 | MTDNLNLGAIDLGTDDEFIARHIGPRAADTQAMLQRLGYDSLDTLIGNVIPDSIKGSSVLDLPAGMGEAEALASLKAIAARNRALRSFIGQGYYNCHTPAPILRNLLENPAWYTAYTPYQPEISQGRLEALLNFQTLVSDLSGLPIANASMLDEATAAAEAMTFCKRLSKNRTSQAFFASRHCHPQTLDVLRTRAEPLGIEVVVGDESTIEDFSAYFGALLQYPTCDGEIVDYRELVSRFHAVDALVAVAADLLALTLLTPPGEFGADVAIGSAQRFGVPLGFGGPHAAYFATRDAFKRDMPGRLVGVSIDRHGKPAYRLAMQTREQHIRREKATSNICTAQVLLANIASMFAVYHGPQGLLRIARRTHRLTAILAAGLERLGVAVEQKHFFDTLSLATGARTAAIHAKARAAGINLREIDAGRLGLSLDETVRQTDVETLWGLLAEEGQALPDFAALAASSGDRLPVELLRQSAILSHPIFNRHHSETELMRYLRKLADKDLALDRTMIPLGSCTMKLNAASEMIPVTWAEFGNLHPFAPAEQSEGYRQLTDELEAMLCSATGYDAVSLQPNAGSQGEYAGLLAIRAYHQSRGDSQRDICLIPSSAHGTNPATASMVGMRVVVVACDARGNVDVEDLRNKASEHKERLAALMITYPSTHGVFEEAIREICAIVHDCGGQVYIDGANMNAMVGLCAPGKFGGDVSHLNLHKTFCIPHGGGGPGVGPIGVRAHLAPFLPGHARGERKEGAVSAAPYGSASILPITWMYIRMMGGEGLKRASEMAILNANYIAHRLEEHYPVLYAGGNGLVAHECILDLRPLKDSSGISVDDVAKRLMDFGFHAPTMSFPVAGTLMIEPTESESKAELDRFCDAMIRIREEIRAVERGELDKEDNPLKNAPHTAAELLGEWNHAYSREQAAYPLASLVEAKYWPPVGRVDNVYGDRNLTCSCPPIEAYS | not soluble
10 | MGSDKIHHHHHHEEDNTELSEEDRVAEMFREAGFKVEKLSSKPVNPPMTEKEASLFLAAYKNRERSGSIQIPSENIELKPDGHLVVKVKCNSEKKNFSRTRTVYKEEFDFTHWATYTVRDIEIECWQDIAGYWKSDNVNCTFTTRDPEYICGFPDINPNTGYSKGSLYFSINITVSRYSGWQIYSVDENYDYTLMLTWLPVAQEWNASLSWHETFW | not soluble
11 | MGSDKIHHHHHHMSDIESLGEAAGLFEEPEDFLPPPPKPHFAEYQRSHITKESKSDVKDIKLRLVGTSPLWGHLLWNAGIYTANHLDSHPELIKGKTVLELGAAAALPSVICALNGAQMVVSTDYPDPDLMQNIDYNIKSNVPEDFNNVSTEGYIWGNDYSPLLAHIEKIGNNNGKFDLIILSDLVFNHTEHHKLLQTTKDLLAEKGQALVVFSPHRPKLLEKDLEFFELAKNEFHLVPQLIEMVNWKPMFDEDEETIEVRSRVYAYYLTHEK | not soluble
12 | MGSDKIHHHHHHMPAKIIDKIIEEIDKLPSPNVVVQRIIAVCSKPDASSTEVANTLMMDASLSARVLKLANSAYYGVPRKITTLSEAVMILGFKTVRNLALSVFTYDMVFKNSSSGIDREKLWEHFIASAIASETVAETMGYPLKEEIFIAGLLHDLGKVVYDLLFSDILETEAKIAQKTKKNLIDIEEELGIPPHSEVGAKLLRKWNFPDLLVLSAEFHHNVEGNPNELFVNQVSMVHIGDVIANLMMKGASLSWGDPKLSPFALNVLKVKPKTFLRILDKSKEKYNKAQEFLQID | not soluble
13 | MSLSMSLRDQLLKAGLVNEKQAKQATKQKQKQQRLEHKNQVDKDDSQRQAAEQAKAEKLARDQELNRQQQEKAEKKAKAAQIKQLIEGTRLPKLESDDYYNFVDAKKVKRIAVNDLIRDKLSRGSLAIVSYDGRYEIVPRDAAVKIQERDPRRVVLLNVQSQEPDEDDPYKDYVVPDDLMWEGGSHHHHHH | soluble
14 | GQGKLISVKTDVLDLTINTRGGDVEQALLPAYPKELNSTQPFQLLETSPQFIYQAQSGLTGRDGPDNPANGPRPLYNVEKDAYVLAEGQNELQVPMTYTDAAGNTFTKTFVLKRGDYAVNVNYNVQNAGEKPLEISSFGQLKQSITLPPHLDTGSSNFALHTFRGAAYSTPDEKYEKYKFDTIADNENLNISSKGGWVAMLQQYFATAWIPHNDGTNNFYTANLGNGIAAIGYKSQPVLVQPGQTGAMNSTLWVGPEIQDKMAAVAPHLDLTVDHHHHHH | soluble
15 | MGSDKIHHHHHHKDEIKHLVSEWQGKEIRFPKDMVFARFATDTVDFTLPKSPHKVLVFVDSIGCTSCKLQLHRWKELIQYTDSITQGTVPFLFFFQSDDKKEIRYLLKKDNFDKPICMDQSDRLNELNHFPADGRFQTFLLDKDNKVVVIGNPIHNPNIRELYLKEITGKQPASQIQTTVKVEEASIQLGTIQMGESKEAVFRLTNTGNNPLVILDAATTCGCARPSFDKHPAKPGEILQVRVIMTPKDKGVFDETISVKCNTNQLIKLNIRGMAQ | not soluble
16 | MSFRLRIDDSVTADHVVCWGVTVALLKKSLFGSTPEERKRRVEEKISQAVVELGLEGLSDEFRVSMLSAWVRYYVFRVDAGEKTFVLNVLSPNSPVKSFRDILDPLRGLFEKFRENIAVPVAYTDEFMLQEWINGLPLSELRDGDVMRSDEKSRRIIEESIYLTARLLYRLWKEGFVYSPWEDYEAMYCDGKIVLLDVTRFEKKPSNESFLQHYYGAPFCPPDVLKDPKSPVNRLYFRGTSERDYFGVEREKYEELFLKGIRDECGSEQEFKILLGDCEAVERIKRV | not soluble
17 | MSLKVVIGYLALDDWEFESLFPTIEWKYLTHINASFARVKADGTLNINPVRKRIESVRETAHKHNVKILISLAKNSPGEFTTAINDPKARKELIQQIIAFTKEYKLDGFDIDYEEYDNWDKNFPSLLVFARGLYLAKEKNMLMTCAVNSRWLNYGTEWEQYFDYINLMSYDRGAFTDKPVQHASYDDFVKDLKYWNEQCRASKSKIVGGLPFYGYSWEESLQGAVDDVRGIRYSGILKHLGNEAADKDNIGKTYYNGRPTIANKCKFIKENDYAGVMIWQLFQDAHNDNYDLKLINVVGREMMEEGHHHHHH | soluble
18 | MGSDKIHHHHHHMAKPKRRYVCQACGSVTHRWQGQCVDCSEWNTLAEEAPETIFSAKHDLSSGGRRVAFVSLDQPVALPQRRKTGIAEFDRALGGGLVPGCAILMGGDPGIGKSTLLLQASAKVALSGGSAVYISGEEASDQVRLRADRLGLGKAPILLAAATSVRDILTTLGNMEPPSLVVIDSIQTMHSDQIEGAPGTVSQVRGCAFELIRYAKENGVALVLVGHVTKDGSIAGPRVLEHMVDVVMSFEGERSHQYRILRALKNRFGAVDEIGVFAMAGQGLEEVGNPSMLFLSGREQEVPGSAVFPALEGTRPVLVEIQALTVRLASGATPRRAVVGWDSGRLAMLLAVLEARCGLNFSSAEVYLNVAGGYRLTDPAADLAVAAALVSALSDRPLPSGSIWFGEISLAGEVRPVAHTPVRLKEAAKLGFSRGCGPEAGAEKVDGLRYSPLRLLPNLIDRVMGGS | not soluble
19 | MRVGIKVLGCPKNEADCEVLAGVLREGGHEIVFDVKDADVVVLDTCAFIEDAKRESIDEIFSFVDAKDQYGYKLVVKGCLVQRYYEELKKEIPEVDQWIGVADPEEIANAIENGTDLVPDQPETVYRYRKRIDLEERPYAYVKISDGCDRGCTFCSIPSFKGSLRSRSIEDITREVEDLLKEGKKEIILVAQDTTSYGIDLYRKQALPDLLRRLNSLNGEFWIRVMYLHPDHLTEEIISAMLELDKVVKYFDVPVQHGSDKILKLMGRTKSSEELKKMLSSIRERFPDAVLRTSIIVGFPGETEEDFEELKQFVEEIQFDKLGAFVYSDEEGTVAFNLKEKVDPEMAKRRQEELLLLQAEISNSRLDRFVGKKLKFLVEGKEGKFLVGRTWTEAPEVDGVVFVRGKGKIGDFLEVVIKEHDEYDMWGSVILEHHHHHH | soluble
20 | MGHHHHHHSHMLKKAKMAKDRKSRKKPVEVKKGKDPNAPKRPMSAYMLWLNASREKIKSDHPGISITDLSKKAGEIWKGMSKEKKEEWDRKAEDARRDYEKAMKEYEGGRG | soluble
21 | MGNTDKLMNQIFELKFTSKSLQRQARKCEKEERSEKLKVKKAIEKGNMDGARIYAENAIRKRSEQMNYLRLSSRLDAVVARLDTQAKMATITKSMTNIVKSLESSLTTGNLQKMSETMDSFEKQFVNMEVQAEFMDNAMAGSTSLSTPEGEVNSLMQQVADDYGLEVSVGLPQPAGHAIPTKTEEKVEEDDLTRRLAELKARG | not soluble
